We go through 84 variants from the RNAGym collection of RNA variant scans (doi:10.1073/pnas.2313332121).

The chains are these.
B1: TPR 5TU (parent)
chain: GGAUCUUCUCGAUCUAACAAAAAAGACAAAUCUGCCACAAAGCUUGAGAGCAUCUUCGGAUGCAGAGGCGGCAGCCUUCGGUGGCGCGAUAGCGCCAACGUUCUCAACUAUGACACGCAAAACGCGUGCUCCGUUGAAUGGAGUUUAUCAUG

This sample holds only a part of the variants without activity. Some results are limits rather than exact numbers.

Variants of B1 are the subject of this data set. Description: polymerase ribozyme fitness, log enrichment relative to wild type (log ratio); higher = more active; in vitro selection for triplet polymerase activity. In a few lines: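 PCR was used to build mutant libraries for each subunit of a heterodimeric triplet polymerase ribozyme, which were then transcribed. A single in vitro selection round, in triplicate, used a frozen incubation at −7 °C and recovered extended constructs by gel excision, streptavidin beads and RT-PCR. Fitness is the logarithm of genotype enrichment relative to wild-type enrichment, averaged over replicates with inverse-variance weights. The logarithm is base 2, and after Illumina sequencing only genotypes with ≥10 input reads and ≥1 read per output were kept.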
Consider C76U U135C, for which the “polymerase ribozyme fitness (log ratio)” value is -2.53.

In the case of C76U U135G, the “polymerase ribozyme fitness (log ratio)” value is -2.79.

Turning to C76U C95U, the “polymerase ribozyme fitness (log ratio)” value was 0.961.

On to G80C C103G G124A A147G, for which the “polymerase ribozyme fitness (log ratio)” value is at most -4.2.

Turning to C79A U101G, the “polymerase ribozyme fitness (log ratio)” value is at most -4.2.

Take U77G A91G G152A: the “polymerase ribozyme fitness (log ratio)” value is at most -4.2.

For the variant C79U A91C, the “polymerase ribozyme fitness (log ratio)” value is -4.02.

As to C79U C93A A98U A122U, the “polymerase ribozyme fitness (log ratio)” value was -4.

On to C79U C87U A113G, for which the “polymerase ribozyme fitness (log ratio)” value was -4.11.

On to C75U G136C, for which the “polymerase ribozyme fitness (log ratio)” value was -2.6.

With G80U C103G G152A, the “polymerase ribozyme fitness (log ratio)” value is at most -4.2.

In the case of C76U C87U G140U U146C, the “polymerase ribozyme fitness (log ratio)” value is -3.72.

As to C76A C87U A142G, the “polymerase ribozyme fitness (log ratio)” value was -1.46.

U77C C85A C108A U111C A113U: the “polymerase ribozyme fitness (log ratio)” value was at most -4.2.

On to C76U G84A U104G U151C, for which the “polymerase ribozyme fitness (log ratio)” value is at most -4.2.

For the variant U78C C93U C99A A115C, the “polymerase ribozyme fitness (log ratio)” value was -4.13.

Consider C79U U90A A137G, for which the “polymerase ribozyme fitness (log ratio)” value was at most -4.2.

Consider U77G G92U A115U, for which the “polymerase ribozyme fitness (log ratio)” value is at most -4.2.

For the variant C76U A122G, the “polymerase ribozyme fitness (log ratio)” value is -0.0921.

For the variant C76U A115C, the “polymerase ribozyme fitness (log ratio)” value is -0.614.

For the variant U77C C93U G100A A119U A150C, the “polymerase ribozyme fitness (log ratio)” value was at most -4.2.

On to C76A A98U, for which the “polymerase ribozyme fitness (log ratio)” value was -0.0442.

In the case of C79G U148A, the “polymerase ribozyme fitness (log ratio)” value was at most -4.2.

Take C76A G128C: the “polymerase ribozyme fitness (log ratio)” value is -3.67.

For C76A G83C A137G, the “polymerase ribozyme fitness (log ratio)” value is -3.62.

In the case of U77C G136U C149G, the “polymerase ribozyme fitness (log ratio)” value is -4.11.

As for C76A C131G, the “polymerase ribozyme fitness (log ratio)” value was -3.98.

Consider G80C C96U, for which the “polymerase ribozyme fitness (log ratio)” value was -3.79.

C76A G94A: the “polymerase ribozyme fitness (log ratio)” value was -0.598.

In the case of G80A C93U, the “polymerase ribozyme fitness (log ratio)” value was -1.6.

With C75U C93U G143U, the “polymerase ribozyme fitness (log ratio)” value was -3.61.

Consider U78C C87U G92A A115U, for which the “polymerase ribozyme fitness (log ratio)” value is -2.33.

For the variant U78G A89U C93G A106G C118G U145C A150U U151G, the “polymerase ribozyme fitness (log ratio)” value was at most -4.2.

Take C76A G92A U134C: the “polymerase ribozyme fitness (log ratio)” value was -3.62.

G80A C87U A89C C99A A120U: the “polymerase ribozyme fitness (log ratio)” value is -2.

Turning to C79A C116A, the “polymerase ribozyme fitness (log ratio)” value was -3.87.

Regarding U77G U78C C85U, the “polymerase ribozyme fitness (log ratio)” value is at most -4.2.

With U77A G81A A113U U134G, the “polymerase ribozyme fitness (log ratio)” value is at most -4.2.

As for U77G C85U C108A A113G, the “polymerase ribozyme fitness (log ratio)” value was at most -4.2.

For U78G G141A, the “polymerase ribozyme fitness (log ratio)” value is at most -4.2.

As to C76A C85U U145C, the “polymerase ribozyme fitness (log ratio)” value was -0.371.

Turning to C75U G94C G100U A107G, the “polymerase ribozyme fitness (log ratio)” value was at most -4.2.

On to C76A A142G U146A, for which the “polymerase ribozyme fitness (log ratio)” value is -1.52.

On to U78C G92A, for which the “polymerase ribozyme fitness (log ratio)” value is -3.78.

In the case of C75U G88A A119U, the “polymerase ribozyme fitness (log ratio)” value was at most -4.2.

Take G80A G84A A120G: the “polymerase ribozyme fitness (log ratio)” value is -1.33.

C75U G128U: the “polymerase ribozyme fitness (log ratio)” value was -3.28.

Take C75U G128A: the “polymerase ribozyme fitness (log ratio)” value is -3.95.

Regarding C79G U101G U109G U135C U148A, the “polymerase ribozyme fitness (log ratio)” value was at most -4.2.

In the case of C79A U90G C95G C116A A119C G141U, the “polymerase ribozyme fitness (log ratio)” value was at most -4.2.

For C79U C93A, the “polymerase ribozyme fitness (log ratio)” value was -3.77.

For the variant C79U C93U, the “polymerase ribozyme fitness (log ratio)” value is -3.03.

Take U77G A89U C95A C114U C125G: the “polymerase ribozyme fitness (log ratio)” value was at most -4.2.

Take U77A: the “polymerase ribozyme fitness (log ratio)” value is at most -4.2.

U77C: the “polymerase ribozyme fitness (log ratio)” value was -2.04.

With G80C C95U C99A G133U, the “polymerase ribozyme fitness (log ratio)” value is at most -4.2.

As for C76A C118A, the “polymerase ribozyme fitness (log ratio)” value was -0.944.

In the case of C79U G88C C93A G136U G143C, the “polymerase ribozyme fitness (log ratio)” value was at most -4.2.

In the case of C79U A150C, the “polymerase ribozyme fitness (log ratio)” value is at most -4.2.

Take C76U G81A C99U: the “polymerase ribozyme fitness (log ratio)” value was -0.44.

C76G A115G A121U: the “polymerase ribozyme fitness (log ratio)” value is at most -4.2.

Consider C76U U82G G83A C105A U134C U146A U148G, for which the “polymerase ribozyme fitness (log ratio)” value is at most -4.2.

C79U C103G: the “polymerase ribozyme fitness (log ratio)” value is at most -4.2.

In the case of G80C C85U A97C C99A G141U, the “polymerase ribozyme fitness (log ratio)” value was -3.93.

Take G80A A119U: the “polymerase ribozyme fitness (log ratio)” value was -0.405.

For G80C G83A A110U, the “polymerase ribozyme fitness (log ratio)” value is at most -4.2.

Take G80A G81A A120C: the “polymerase ribozyme fitness (log ratio)” value was -0.393.

On to G80U U109C G143C, for which the “polymerase ribozyme fitness (log ratio)” value is -4.04.

On to U78C C95U C108U C116U, for which the “polymerase ribozyme fitness (log ratio)” value was at most -4.2.

G80U C125A: the “polymerase ribozyme fitness (log ratio)” value was -1.04.

As for U78A C93G C108U, the “polymerase ribozyme fitness (log ratio)” value is at most -4.2.

Take G80U U148C: the “polymerase ribozyme fitness (log ratio)” value is -3.38.

Turning to U78A C95G U127C U130G U139G, the “polymerase ribozyme fitness (log ratio)” value was at most -4.2.

As for C75U G80C A91G A97U A122G, the “polymerase ribozyme fitness (log ratio)” value was at most -4.2.

Consider C76U A91U, for which the “polymerase ribozyme fitness (log ratio)” value is -4.13.

For C76U G81A, the “polymerase ribozyme fitness (log ratio)” value was 0.573.

For U77G G86U U102C G140C, the “polymerase ribozyme fitness (log ratio)” value was at most -4.2.

Take U77A U78C G94U C95G C105U: the “polymerase ribozyme fitness (log ratio)” value is at most -4.2.

U78A U90C: the “polymerase ribozyme fitness (log ratio)” value is at most -4.2.

Turning to U77A C85U A91G G133C A142G, the “polymerase ribozyme fitness (log ratio)” value is at most -4.2.

On to C79G G81U G133A, for which the “polymerase ribozyme fitness (log ratio)” value is at most -4.2.

With C76U G88U A91C C93U G140C, the “polymerase ribozyme fitness (log ratio)” value is at most -4.2.

Consider G80C G92U C96U U135G A150G, for which the “polymerase ribozyme fitness (log ratio)” value was at most -4.2.

For G80U G81C G84U A89U A97U G100A G126U, the “polymerase ribozyme fitness (log ratio)” value is at most -4.2.
